Consider two molecules from paper PMC10804554, “The DNA damage sensor ATM kinase interacts with the p53 mRNA and guides the DNA damage response pathway” (Molecular Cancer, 2024).

For the assay, the target named is T1, recombinant MDM2 protein (UniProt Q00987 1-491).
T1 construct: MDM2 E3 ubiquitin ligase, recombinant version used in sandwich ELISA; Source, limits and tags of the recombinant MDM2 may stand in Supplementary Methods; source: recombinant
Put plainly: ELISA; protein-protein sandwich ELISA on 96-well plates with his-tagged recombinant FAT or PI3K domain and recombinant MDM2; details in Supplementary Methods.

T1 sequence (Q00987 whole entry): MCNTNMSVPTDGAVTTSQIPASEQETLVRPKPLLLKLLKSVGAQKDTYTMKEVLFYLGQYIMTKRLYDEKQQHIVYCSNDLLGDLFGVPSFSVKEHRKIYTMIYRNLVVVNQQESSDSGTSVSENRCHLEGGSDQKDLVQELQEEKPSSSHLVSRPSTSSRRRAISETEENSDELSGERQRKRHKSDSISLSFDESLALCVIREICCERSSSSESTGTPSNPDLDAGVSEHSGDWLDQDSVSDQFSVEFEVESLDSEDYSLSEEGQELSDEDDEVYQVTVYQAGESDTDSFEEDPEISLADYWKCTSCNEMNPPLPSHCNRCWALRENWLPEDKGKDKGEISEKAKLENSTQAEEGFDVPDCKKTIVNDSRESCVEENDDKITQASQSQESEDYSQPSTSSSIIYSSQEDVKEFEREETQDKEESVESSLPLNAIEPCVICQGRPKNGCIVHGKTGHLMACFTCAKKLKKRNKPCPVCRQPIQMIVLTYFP

B1: recombinant PI3K domain of ATM (rPI3K), his-tagged (domain or fragment)
chain: FKAEFRLAGGVNLPKIIDCVGSDGKERRQLVKGRDDLRQDAVMQQVFQMCNTLLQRNTETRKRKLTICTYKVVPLSQRSGVLEWCTGTVPIGEFLVNNEDGAHKRYRPNDFSAFQCQKKMMEVQKKSFEEKYEVFMDVCQNFQPVFRYFCMEKFLDPAIWFEKRLAYTRSVATSSIVGYILGLGDRHVQNILINEQSAELVHIDLGVAFEQGKILPTPETVPFRLTRDIVDGMGITGVEGVFRRCCEKTMEVMRNSQETLLTIVEVLLYDPLFDWTMNPLKALYLQQRPEDETELHPTLNADDQECKRNLSDI
As a reminder, the Kd is the concentration at which binding is half-saturated. On to B1, for which the Kd is 186 nM.

B2: recombinant FAT domain of ATM (rFAT), his-tagged (domain or fragment)
chain: EVAKVAQSCAAHFTALLYAEIYADKKSMDDQEKRSLAFEEGSQSTTISSLSEKSKEETGISLQDLLLEIYRSIGEPDSLYGCGGGKMLQPITRLRTYEHEAMWGKALVTYDLETAIPSSTRQAGIIQALQNLGLCHILSVYLKGLDYENKDWCPELEELHYQAAWRNMQWDHCTSVSKEVEGTSYHESLYNALQSLRDREFSTFYESLKYARVKEVEEMCKRSLESVYSLYPTLSRLQAIGELESIGELFSRSVTHRQLSEVYIKWQKHSQLLKDSDFSFQEPIMALRTVILEILMEKEMDNSQRECIKDILTKHLVELSILARTFKNTQLPERAIFQIKQYNSVSCGVSEWQLEEAQVFWAKKEQSLALSILKQMIKKLDASCAANNPSLKLTYTECLRVCGNWLAETCLENPAVIMQTYLEKAVEVAGNYDGESSDELRNGKMKAFLSLARFSDTQYQRIENYMKSSEFENKQALLKRAKEEVGLLREHKIQTNRYTVKVQRELELDELALRALKEDRKRFLCKAVENYINCLLSGEEHDMWVFRLCSLWLENSGVSEVNGMMKRDGMKIPTYKFLPLMYQLAARMGTKMMGGLGFHEVLNNLISRISMDHPHHTLFIILALANA
Take B2: the equilibrium dissociation constant (Kd) worked out at 30 nM.
